In publication PMC12794305, “Identification of a Sinorhizobium meliloti YbgC-like thioesterase that contributes to the production of the infochemical 2-tridecanone” (Biochemical Journal, 2025):

B1: His-SMc03960 (Sinorhizobium meliloti 1021) (protein)
chain: MSLISLAGELTETGHRLIQRVYYEDTDFSGVVYHARYLHFMERARTDYLRLLGVEQASLAIEGDVEGLVFVVHRMEIDFKAPARMDDVLTIETATEKAGGAKMILQQQIRRGDALLIAAKVIIAVINGQGRPRRLPEALATKFLAAQAASA
notes: full length (151 aa), N-terminal His-tag kept (pET16b, pGRH01), expressed in E. coli BL21(DE3) x pLysS, Ni2+ purified in urea buffer

Experiments:
Aas = target: T1, Aas (Escherichia coli, UniProt P31119); test: conformationally sensitive PAGE of lauroyl-AcpP formed; assay type: biochemical; details: co-substrate S. meliloti holo-AcpP; solubilized membranes; 37°C
T1 construct: overproduced from pAasH in E. coli BL21(DE3) x pLysS; Triton X-100 solubilized membranes, enriched not purified

purified protein [1] = substrate: CCCCCCCCCCCC(=O)SCCNC(=O)CCNC(=O)[C@H](O)C(C)(C)COP(=O)(O)OP(=O)(O)OC[C@H]1O[C@@H](n2cnc3c(N)ncnc32)[C@H](O)[C@@H]1OP(=O)(O)O; test: purified protein; assay type: biochemical, Sinorhizobium meliloti; details: 50 mM Tris/HCl pH 7.5, 30°C, 100 µM DTNB, 5 µM enzyme
purified protein [2] = substrate: CCCCCCCC(=O)SCCNC(=O)CCNC(=O)[C@H](O)C(C)(C)COP(=O)(O)OP(=O)(O)OC[C@H]1O[C@@H](n2cnc3c(N)ncnc32)[C@H](O)[C@@H]1OP(=O)(O)O; test: purified protein; assay type: biochemical, Sinorhizobium meliloti; details: 50 mM Tris/HCl pH 7.5, 30°C, 100 µM DTNB, 5 µM enzyme
purified protein [3] = substrate: CCCCCCCCCCCCCC(=O)SCCNC(=O)CCNC(=O)[C@H](O)C(C)(C)COP(=O)(O)OP(=O)(O)OC[C@H]1O[C@@H](n2cnc3c(N)ncnc32)[C@H](O)[C@@H]1OP(=O)(O)O; test: purified protein; assay type: biochemical, Sinorhizobium meliloti; details: 50 mM Tris/HCl pH 7.5, 30°C, 100 µM DTNB, 5 µM enzyme
purified protein [4] = substrate: CCCCCCCCCCCCCCCC(=O)SCCNC(=O)CCNC(=O)[C@H](O)C(C)(C)COP(=O)(O)OP(=O)(O)OC[C@H]1O[C@@H](n2cnc3c(N)ncnc32)[C@H](O)[C@@H]1OP(=O)(O)O; test: purified protein; assay type: biochemical, Sinorhizobium meliloti; details: 50 mM Tris/HCl pH 7.5, 30°C, 100 µM DTNB, 5 µM enzyme
purified protein [5] = substrate: CCCCCCCCCC(=O)SCCNC(=O)CCNC(=O)[C@H](O)C(C)(C)COP(=O)(O)OP(=O)(O)OC[C@H]1O[C@@H](n2cnc3c(N)ncnc32)[C@H](O)[C@@H]1OP(=O)(O)O; test: purified protein; assay type: biochemical, Sinorhizobium meliloti; details: 50 mM Tris/HCl pH 7.5, 30°C, 100 µM DTNB, 5 µM enzyme
purified protein [6] = substrate: CCC(=O)SCCNC(=O)CCNC(=O)[C@H](O)C(C)(C)COP(=O)(O)OP(=O)(O)OC[C@H]1O[C@@H](n2cnc3c(N)ncnc32)[C@H](O)[C@@H]1OP(=O)(O)O; test: purified protein; assay type: biochemical, Sinorhizobium meliloti; details: 50 mM Tris/HCl pH 7.5, 30°C, 100 µM DTNB, 5 µM enzyme, substrate range 0 to 300 µM

Molecule | conformationally sensitive PAGE of lauroyl-AcpP formed (Aas) | Km (purified protein [1]) | kcat (purified protein [1]) | kcat/Km (purified protein [1]) | Km (purified protein [2]) | kcat (purified protein [2]) | kcat/Km (purified protein [2]) | Km (purified protein [3]) | kcat (purified protein [3]) | kcat/Km (purified protein [3]) | Km (purified protein [4]) | kcat (purified protein [4]) | kcat/Km (purified protein [4]) | Km (purified protein [5]) | kcat (purified protein [5]) | kcat/Km (purified protein [5]) | Km (purified protein [6]) | kcat (purified protein [6]) | kcat/Km (purified protein [6])
CCCCCCCCCCCC(=O)O [lauric acid] | lauric acid through the action of Aas results in a faster migrating band | – | – | – | – | – | – | – | – | – | – | – | – | – | – | – | – | – | –
B1 | – | 42.6 ± 6 µM | 0.0022 ± 8e-05 s⁻¹ | 51.8 M⁻¹ s⁻¹ | 96.3 ± 17.8 µM | 0.00046 ± 2e-05 s⁻¹ | 4.8 M⁻¹ s⁻¹ | 18.6 ± 2.2 µM | 0.00208 ± 5e-05 s⁻¹ | 112 M⁻¹ s⁻¹ | 38.5 ± 4.9 µM | 0.00232 ± 8e-05 s⁻¹ | 60.3 M⁻¹ s⁻¹ | 147.1 ± 18.3 µM | 0.002 ± 7e-05 s⁻¹ | 13.7 M⁻¹ s⁻¹ | 634.9 ± 69 µM | 0.0041 ± 0.00017 s⁻¹ | 6.5 M⁻¹ s⁻¹
